Test results from the supplement of paper PMC10724198.
± gives the standard deviation of the averaged measurements.

system: Saccharomyces cerevisiae; experiment: protein stability index of tFT-peptide fusion (C-terminal peptide) (PSI (0-1 scale)); higher = more stable (slower turnover); settings: genetic background: das1 deletion; temperature: 30 C
Procedure: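 MPS profiling in S. cerevisiae of the yeast C-terminome library: the last 12 aa of each annotated ORF are fused to the C-terminus of a sfGFP-mCherry timer, after a GGGS linker. Cells are FACS-sorted into 8 mCherry/sfGFP bins and deep-sequenced. PSI runs from 0 (unstable) to 1 (stable); wild type and das1Δ backgrounds, two technical replicates each.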

| Sequence | protein stability index |
| --- | --- |
| RLPRSFLFLNKK [YOR343C C-terminal 12 aa] | 0.723 ± 0.01 |
| RLVVEPLQGRKH [ISD11 C-terminal 12 aa] | 0.729 ± 0.011 |
| RLYVSRLFISKL [ATP8 C-terminal 12 aa] | 0.801 ± 0.042 |
| RMDEENYEEEFC [UBP11 C-terminal 12 aa] | 0.716 ± 0.02 |
| RNQNSDRLNFQP [YBR138C C-terminal 12 aa] | 0.705 ± 0.0061 |
| RPFYKRMFTKEK [HXT5 C-terminal 12 aa] | 0.7313 ± 0.0058 |
| RPMPPIRGPKRR [SMD3 C-terminal 12 aa] | 0.688 ± 0.017 |
| RPMQHMYINNFT [YAL026C-A C-terminal 12 aa] | 0.71914 ± 0.00059 |
| RQLGSKQRKHRL [ECI1 C-terminal 12 aa] | 0.786 ± 0.021 |
| RQSRERALGIKR [PRP22 C-terminal 12 aa] | 0.6929 ± 0.0054 |
| RRCDDMLYYIQN [POP4 C-terminal 12 aa] | 0.716 ± 0.021 |
| RRQMGIPTISQV [FHN1 C-terminal 12 aa] | 0.681 ± 0.016 |
| RSDTKEPLALLS [VPS20 C-terminal 12 aa] | 0.6784 ± 0.0067 |
| RSHSRKNSLSLL [SPO24 C-terminal 12 aa] | 0.72 ± 0.021 |
| RTDPDRYSRLSV [ILT1 C-terminal 12 aa] | 0.703 ± 0.027 |
| SCFSYSVGSKFT [YPR170W-A C-terminal 12 aa] | 0.7068 ± 0.0063 |
| SDHCWDGCWWCR [AQY2 C-terminal 12 aa] | 0.7424 ± 0.0017 |
| SEEKRRLAPADI [YOL019W-A C-terminal 12 aa] | 0.68 ± 0.02 |
| SELKGFVDEVDL [TFC1 C-terminal 12 aa] | 0.7183 ± 0.0033 |
| SESLSDSDLEIL [RAD24 C-terminal 12 aa] | 0.7105 ± 0.0068 |
| SFCYVSACGRTQ [YFL021C-A C-terminal 12 aa] | 0.677 ± 0.0097 |

| Sequence | protein stability index |
| --- | --- |
| SFFLRNFFPSLF [YDL159W-A C-terminal 12 aa] | 0.756 ± 0.026 |
| SFPIASSTTQTS [NST1 C-terminal 12 aa] | 0.696 ± 0.021 |
| SFYDNSLQTWIV [RRT2 C-terminal 12 aa] | 0.7484 ± 0.0042 |
| SGEAAEEAEDEE [RPS9B C-terminal 12 aa] | 0.652 ± 0.023 |
| SGIKEFFDNYKS [ARO9 C-terminal 12 aa] | 0.712 ± 0.027 |
| SGSGNSSKSNCC [SEC4 C-terminal 12 aa] | 0.691 ± 0.025 |
| SHDMDFNNAGDF [HMS1 C-terminal 12 aa] | 0.707 ± 0.03 |
| SHPTEQTEVSSQ [MHR1 C-terminal 12 aa] | 0.697 ± 0.0079 |
| SICPAIRRKEDY [RDT1 C-terminal 12 aa] | 0.699 ± 0.025 |
| SIPGITGRAQIS [ORM1 C-terminal 12 aa] | 0.6983 ± 0.0014 |
| SIYDGTEEKIVY [DAL4 C-terminal 12 aa] | 0.689 ± 0.018 |
| SKLGINSGLCTN [ESL1 C-terminal 12 aa] | 0.683 ± 0.01 |
| SLCMEAGLVNEN [YCF1 C-terminal 12 aa] | 0.6959 ± 0.0021 |
| SLDITEDWEVIF [ROT2 C-terminal 12 aa] | 0.725 ± 0.023 |
| SLEKELISRGYR [CDC73 C-terminal 12 aa] | 0.724 ± 0.0099 |
| SLKNYHNNTAQA [DBP6 C-terminal 12 aa] | 0.688 ± 0.031 |
| SLNRPAERGGNR [YNL143C C-terminal 12 aa] | 0.69578 ± 0.00021 |
| SLPRQAGGRKKK [GLC7 C-terminal 12 aa] | 0.715 ± 0.033 |
| SLQVILEFVSQH [SXM1 C-terminal 12 aa] | 0.654 ± 0.029 |
| SLYPRFSGRCKP [DED81 C-terminal 12 aa] | 0.703 ± 0.011 |
| SMVSCLLTLYVL [GTT3 C-terminal 12 aa] | 0.4741 ± 0.0017 |

| Sequence | protein stability index |
| --- | --- |
| SNENARNNNPYL [FLC2 C-terminal 12 aa] | 0.6906 ± 0.0056 |
| SNFSRTLGLEFI [YGL041C C-terminal 12 aa] | 0.711 ± 0.0098 |
| SNSSICFPLTIF [YKL136W C-terminal 12 aa] | 0.6337 ± 0.0033 |
| SNSSKNRMNNYR [SPT6 C-terminal 12 aa] | 0.702 ± 0.017 |
| SPISVDFSSYLS [NBP1 C-terminal 12 aa] | 0.734 ± 0.015 |
| SRDYEETEYSVI [SPP381 C-terminal 12 aa] | 0.709 ± 0.025 |
| SRRRPFIGPETV [YMR057C C-terminal 12 aa] | 0.709 ± 0.037 |
| SRVDEVVTKYSH [AAH1 C-terminal 12 aa] | 0.7 ± 0.029 |
| SSANIDINSIAK [SPO22 C-terminal 12 aa] | 0.7 ± 0.04 |
| SSASPEVDCRCG [YLR444C C-terminal 12 aa] | 0.705 ± 0.0094 |
| SSFSLSLPRLNQ [SPT7 C-terminal 12 aa] | 0.6893 ± 0.0022 |
| SSIQDLLSKLAN [RTT103 C-terminal 12 aa] | 0.691 ± 0.02 |
| SSLPYDILPALL [YGL199C C-terminal 12 aa] | 0.703 ± 0.004 |
| SSSSTSSSATKN [TPS1 C-terminal 12 aa] | 0.703 ± 0.017 |
| STFSKPFSTISK [VHR2 C-terminal 12 aa] | 0.6906 ± 0.0026 |
| STHGPGIVIDFA [MRPL1 C-terminal 12 aa] | 0.724 ± 0.011 |
| STLAGEWRLIIA [YBR284W C-terminal 12 aa] | 0.498 ± 0.0089 |
| SVSDPVKSEDSS [NCB2 C-terminal 12 aa] | 0.68 ± 0.034 |
| SVYEHEHEKTFI [FUR4 C-terminal 12 aa] | 0.7127 ± 0.0018 |
| SWSGDNEAHRWT [NPT1 C-terminal 12 aa] | 0.716 ± 0.023 |
| TAEEQEQSACQC [YPT6 C-terminal 12 aa] | 0.6863 ± 0.0043 |

| Sequence | protein stability index |
| --- | --- |
| TAESDDDEEDDE [TIF5 C-terminal 12 aa] | 0.688 ± 0.026 |
| TATSSSIILSDK [SSN2 C-terminal 12 aa] | 0.713 ± 0.032 |
| TDELWEMLLDQA [MET12 C-terminal 12 aa] | 0.762 ± 0.039 |
| TELRHKRTGGKH [ILV2 C-terminal 12 aa] | 0.691 ± 0.0092 |
| TGKDVMKGALGF [SRO7 C-terminal 12 aa] | 0.6953 ± 0.0023 |
| TGRDMMKSAVGF [SRO77 C-terminal 12 aa] | 0.714 ± 0.015 |
| TGTSTEAPSAAN [NCL1 C-terminal 12 aa] | 0.6661 ± 0.00092 |
| THQKKIAKKKHQ [YPR015C C-terminal 12 aa] | 0.741 ± 0.053 |
| TIITKYEMLVRT [YOL134C C-terminal 12 aa] | 0.52 ± 0.015 |
| TKKSSSHHRTGK [DIG1 C-terminal 12 aa] | 0.697 ± 0.014 |
| TLEDEALQRNSK [JNM1 C-terminal 12 aa] | 0.722 ± 0.0093 |
| TLNVSNISHYSL [GAL80 C-terminal 12 aa] | 0.7033 ± 0.0016 |
| TLQSEINISVKH [ENA5 C-terminal 12 aa] | 0.671 ± 0.0081 |
| TLTDLRDELRGL [NUP120 C-terminal 12 aa] | 0.678 ± 0.018 |
| TLWNDNTSYPFL [PDR3 C-terminal 12 aa] | 0.756 ± 0.015 |
| TNDSFNIVALTP [PRP19 C-terminal 12 aa] | 0.68811 ± 0.00023 |
| TPENNHLKWLIK [UGX2 C-terminal 12 aa] | 0.716 ± 0.024 |
| TPKPVDTDDEED [NEW1 C-terminal 12 aa] | 0.685 ± 0.023 |
| TPLGQTLLDSRR [DAL1 C-terminal 12 aa] | 0.6757 ± 0.0015 |
